Data taken from article PMC3278721 (Molecular Cell, 2012).

T1: Maltose Binding Protein fused to ROS1 full-length (MBP-ROS1) (Arabidopsis, UniProt Q9SJQ6 1-1393)
T1 sequence (looked up): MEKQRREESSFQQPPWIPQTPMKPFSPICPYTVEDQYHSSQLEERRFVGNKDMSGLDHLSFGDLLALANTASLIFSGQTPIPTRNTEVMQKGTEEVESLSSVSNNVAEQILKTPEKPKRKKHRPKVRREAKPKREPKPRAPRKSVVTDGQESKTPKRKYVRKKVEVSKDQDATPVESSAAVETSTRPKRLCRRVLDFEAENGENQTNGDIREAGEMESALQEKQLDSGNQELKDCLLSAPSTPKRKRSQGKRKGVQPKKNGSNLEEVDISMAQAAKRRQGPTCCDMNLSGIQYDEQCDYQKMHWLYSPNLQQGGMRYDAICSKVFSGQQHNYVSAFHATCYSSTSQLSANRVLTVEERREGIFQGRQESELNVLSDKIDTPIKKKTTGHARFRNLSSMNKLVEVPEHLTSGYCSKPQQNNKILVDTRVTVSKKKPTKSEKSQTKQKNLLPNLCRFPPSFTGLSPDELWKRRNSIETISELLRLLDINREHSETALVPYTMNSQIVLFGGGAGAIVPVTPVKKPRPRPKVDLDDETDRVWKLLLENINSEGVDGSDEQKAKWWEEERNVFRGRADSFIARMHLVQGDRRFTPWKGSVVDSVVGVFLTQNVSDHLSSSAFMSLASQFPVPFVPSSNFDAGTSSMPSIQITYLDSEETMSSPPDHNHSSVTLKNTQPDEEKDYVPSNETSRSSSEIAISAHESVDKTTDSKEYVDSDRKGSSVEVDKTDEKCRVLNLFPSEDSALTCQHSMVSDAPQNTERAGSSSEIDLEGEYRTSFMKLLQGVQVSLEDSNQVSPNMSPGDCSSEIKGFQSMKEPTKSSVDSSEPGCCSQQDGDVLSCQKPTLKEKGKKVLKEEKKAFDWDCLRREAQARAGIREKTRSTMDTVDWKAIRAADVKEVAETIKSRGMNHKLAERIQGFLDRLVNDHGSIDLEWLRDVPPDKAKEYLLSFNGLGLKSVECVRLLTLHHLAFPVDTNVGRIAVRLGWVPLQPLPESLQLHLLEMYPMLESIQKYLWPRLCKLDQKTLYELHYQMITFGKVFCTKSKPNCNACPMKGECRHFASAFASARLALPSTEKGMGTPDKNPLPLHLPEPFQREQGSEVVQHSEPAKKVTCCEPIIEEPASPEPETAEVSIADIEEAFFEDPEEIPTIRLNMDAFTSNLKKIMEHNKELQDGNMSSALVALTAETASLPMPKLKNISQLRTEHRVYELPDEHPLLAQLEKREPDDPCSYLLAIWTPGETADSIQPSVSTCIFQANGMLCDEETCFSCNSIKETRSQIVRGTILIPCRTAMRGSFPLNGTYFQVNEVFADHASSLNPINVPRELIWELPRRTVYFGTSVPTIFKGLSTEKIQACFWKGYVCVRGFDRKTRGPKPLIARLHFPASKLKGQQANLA

T2: Purified full-length ROS1 fused to His6-tag (FL-ROS1) (Arabidopsis, UniProt Q9SJQ6 1-1393)
T2 sequence (looked up): T1 sequence (looked up)

B1: His-tagged ZDP (Arabidopsis thaliana zinc finger DNA 3'-phosphoesterase) (enzyme, UniProt Q84JE8 1-694, looked up)
chain: MITVAPFVSLRFQFPLYIINRSTLFFRERTQYLVYNTCHILRTTAKTMPVVAEYAKSNRSSCRSCSNKIAVKSLRLGLISKGRGGVDMTRWHHFDCFPTDSESIASVDDIQGLSALEKEDQDALTKLVEQCGKVPAKKPDEKKGKAKKHIMGPKGLTKAATSSKVIADNAKSSRSSCNRCSQTIVSKDLRVGLVTEDSRGFDITRWHHLGCFPIDFHPIDSVEDIGGYSSLEKGDQMELKYLAEVNKKDKTLIDDVQKMDEGDDEAIADNELTEETKKGKHSPVAKLVEQPGEPAKEDEDEESKKPASDEISEQKTKDVKNSPDSSKVISEYAKSSRSTCKKCSQTIAAKELRLGLVTRNFRGFDMKQWHHLGCFPVDSDPIVSVEDIGGFSELQSGDQDALKELVQQCGKQTLVDKMDEDNDDTEAKIKLTEETNKRKHSEVGEMVEEDESLTKAKQQMAKTHKVNMSESTSQVEVEAEITLSASDVKDKYRDANLLPKWKAFETVIFLERDDGLNDSEKIAAFDFDGCLAKTSVKIVGADAWSLMYPSIPEKLQSLHDQGYKLVIFTNESNIDRWKNKRQAAVDSKIGRLNSFIERVKVPIQVFIACGVSSSGGKGGKDDLYRKPKAGMWQLMKKHFNSGIAIDMDKSFYVGDAAGRKMDHSDADIKFAQASGLKFFTPEEYFIPSSTSPGT
B2: MBP-ZDP (enzyme, Arabidopsis thaliana, UniProt Q84JE8 1-694, looked up)
chain: B1 chain

Assays:
[1] = molecular target: T1, Maltose Binding Protein fused to ROS1 …; experiment: pull-down
[2] = molecular target: T2, Purified full-length ROS1 fused to …; experiment: pull-down

| Binder | binding result [1] | binding result [2] |
| --- | --- | --- |
| B1 | binds | – |
| B2 | – | binds |
